Experimental data from patent publication US10925928B2, “Method for treating chemotherapy-induced male infertility” (THE BOARD OF REGENTS OF THE UNIVERSITY OF TEXAS SYSTEM, priority 2013, dated 2021).
Entries after “also recorded” stand apart in the source; their conditions may differ.

Assays:
[1] = test system: C57BL/6 mice; assay: Mouse testis weight and histological evaluation of spermatogenesis two months after busulfan +/- G-CSF; format: in vivo
Experimental: (§1) FIGS. 3A-3D. This study evaluated the chronic and acute effects of G-CSF treatment on susceptibility to cytotoxic damage by busulfan alkylating chemotherapy. (A) Five-week old C57BL/6 mice were treated with a sterilizing dose of busulfan (44 mg/kg) on day 0. Some busulfan-treated mice also received injections of recombinant human G-CSF (50 μg/kg/day) on days −2 through 4 (seven days total, see group 3 in B). (B) 3 animals were used for each of three treatment groups as shown. Animals in group 1 served as an “untreated” control group (received 0.1% BSA/DPBS and DMSO vehicles only), while those in group 2, which received only busulfan (plus 0.1% BSA/DPBS vehicle), served as positive controls for busulfan cytotoxicity. Animals in the experimental group 3 received both busulfan and daily G-CSF injections. (C) 8-10 weeks after treatment, some of the mice were euthanized and testes removed for histological evaluation of spermatogenesis. (D) In an “acute” study, testes were removed on day 5 of the experiment (one day after the last G-CSF treatment, dark triangle). These testis tissues were used for immunohistochemical analysis of undifferentiated spermatogonia (PLZF) and apoptosis (activated Caspase 3 and TUNEL, see FIGS. 10-12).
FIG. 4. Mouse testis weights 2 months after busulfan treatment +/−G-CSF. Two months after treatment, testes were removed from the treated mice and weighed. […] But, testis weights from animals treated with busulfan+G-CSF were not different from those treated with busulfan+vehicle. Statistical significance was determined by a student's T-test.
FIGS. 5A-5F. […] Tiled brightfield images of H&E-stained sections of mouse testes from (A) group 1 (DMSO+vehicle), (B) group 2 (busulfan+vehicle), and (C) group 3 (busulfan+G-CSF). Dashed box inset indicates the area shown in D-F. Scale bars=500 μm. Enlarged images of the dashed boxes in A-C are shown in (D-F), respectively. Scale bars=50 μm. Filled arrowheads=seminiferous tubules with spermatogenesis. Open arrowheads=no spermatogenesis.
FIGS. 6A-6B. Quantitatively more mouse spermatogenesis was observed after busulfan treatment when mice received G-CSF treatment. Seminiferous tubule cross-sections from mice treated as shown in FIG. 5 were systematically counted and categorized as containing complete spermatogenesis (complete), up to round spermatid stage (round spermatids), up to primary spermatocytes (1° spermatocytes), or containing no spermatogenesis (empty or Sertoli cell-only). (A) The percentage of all seminiferous tubule cross-sections counted from all animals in each group which fall in the four categories is shown. […] (B) The same data presented in A are combined by group to show the percentage of seminiferous tubules containing any spermatogenesis or no spermatogenesis (empty bar segment). […] Statistically significant results (p<0.05) were determined by Tukey-Kramer ANOVA.
The results of meta-analysis of the rhesus macaque busulfan studies prompted additional studies in mice to (1) replicate the results observed in rhesus macaques and (2) determine whether G-CSF could act directly upon testicular germ cells to prevent male infertility after busulfan treatment. In the first experiment, 5 week-old C57BL/6 mice were treated with G-CSF for one week (50 μg/kg/day) and administered busulfan (44 mg/kg) on day 3 (see FIG. 3), mimicking the approach used to administer G-CSF in rhesus monkeys. Two months after completing G-CSF treatment, the mice euthanized and their testes removed. […] The testes were then analyzed histologically (FIG. 5) to determine if G-CSF treatment affected the degree of spermatogenesis after busulfan treatment. Unlike control testes, in which most tubules contained complete spermatogenesis (FIGS. 5A and D), many tubules were devoid of germ cells (empty or Sertoli cell-only) in animals treated with busulfan (FIGS. 5B-C and E-F).

[2] = test system: C57BL/6 mice; assay: Acute mouse study: immunohistochemistry of undifferentiated spermatogonia (PLZF) and apoptosis 5 days after busulfan +/- G-CSF; format: in vivo; conditions: five days after busulfan treatment
Experimental: as §1
FIG. 10. […] The numbers of PLZF+spermatogonia in stained testis sections from mice treated as in FIG. 3 and analyzed as in FIG. 3D are shown. […] Statistical significance was determined by student's T-test.
FIG. 11. […] Despite increased numbers of PLZF+spermatogonia in busulfan-treated animals that also received G-CSF (FIG. 10), the proportions of PLZF+spermatogonia that were positive for activated Caspase 3 (top) were not different between animals treated with G-CSF compared to busulfan alone (p=0.38).
FIG. 12. […] Despite increased numbers of PLZF+spermatogonia in busulfan-treated animals that also received G-CSF (FIG. 10), the proportions of PLZF+spermatogonia that were positive for TUNEL were not different between animals treated with G-CSF compared to busulfan alone (p=0.28).
Shown in FIG. 10 are the numbers of PLZF+spermatogonia in stained testis sections from mice treated as in FIG. 3. […] Statistical significance was determined by student's T-test.
Despite increased numbers of PLZF+spermatogonia in busulfan-treated animals that also received G-CSF, the proportions of PLZF+spermatogonia that were positive for activated Caspase 3 (FIG. 11) or TUNEL (FIG. 12) were not different between animals treated with G-CSF compared to busulfan alone (p=0.38 and p=0.28, respectively).

[3] = test system: rhesus macaques; conditions: 8-12 mg/kg busulfan without G-CSF; two animals; total sperm per ejaculate; cited from earlier work
[4] = test system: rhesus macaques; assay: Meta-analysis of ejaculated sperm counts in rhesus macaques after busulfan chemotherapy with or without G-CSF; format: in vivo, rhesus macaque
Excerpt: FIG. 1. Timeline for rhesus macaque granulocyte colony stimulating factor (G-CSF) and chemotherapy administration. FIG. 1 illustrates the timing of experimental administration of G-CSF and busulfan alkyating chemotherapy in the context of a study testing spermatogonial stem cell transplantation. Male rhesus macaques were used as recipients for spermatogonial stem cell transplantation after busulfan treatment. In order to restore the hematopoietic system after busulfan chemotherapy, autologous transplants of hematopoietic stem cells harvested from the peripheral blood (PBSCs) following G-CSF mobilization were used. Animals received daily subcutaneous injections with the cytokine G-CSF (and in some cases, also SCF) for six days to mobilize hematopoietic stem cells from the bone marrow into the general circulation. […] Animals were monitored closely for hematopoietic deficits with weekly (or more frequent) complete blood count (CBC). […] Weekly ejaculated sperm counts measured the effect of busulfan on spermatogenesis and the progression of spermatogenic recovery after transplant. […]
Animals received daily subcutaneous injections with the cytokine G-CSF for 6 days to mobilize hematopoietic stem cells from the bone marrow into the general circulation. […] Animals were monitored closely for hematopoietic deficits with weekly (or more frequent) complete blood count (CBC). […]

[5] = test system: irradiated mice; conditions: G-CSF 100 μg/kg/day for 3 days prior to 5 Gy testicular gamma irradiation; measured 3 weeks later; cited from earlier work
[6] = 2 day pre-treatment and 5 day post-treatment with G-CSF 50 μg/kg, p<0.05 Tukey-Kramer ANOVA

Molecule: CS(=O)(=O)OCCCCOS(C)(=O)=O [busulfan, reference compound]
- spermatogenesis, busulfan alone compared to control animals ([1]; busulfan 44 mg/kg, two months after treatment, histology of seminiferous tubule cross-sections): significantly less spermatogenesis
- testis weights, busulfan-treated animals compared with controls ([1]; busulfan 44 mg/kg, two months after treatment, student's T-test): significantly smaller; also recorded: significantly reduced
- numbers of PLZF+ spermatogonia per tubule, busulfan-treated groups compared with vehicle-treated animals ([2]; student's T-test): significantly lower
- loss of spermatogenesis (azoospermia), mean sperm counts [3]: loss of spermatogenesis (azoospermia) for at least one year

Molecule: SCF: cytokine given in some cases in addition to G-CSF for mobilization of hematopoietic stem cells
- spermatogenic recovery, animal given SCF in addition to G-CSF compared with the other two G-CSF animals ([4]; one monkey of the G-CSF group, data not shown): no apparent difference in spermatogenic recovery

B1: granulocyte colony-stimulating factor (protein, UniProt P09919 31-207, looked up)
Granulocyte …: TPLGPASSLPQSFLLKCLEQVRKIQGDGAALQEKLVSECATYKLCHPEELVLLGHSLGIPWAPLSSCPSQALQLAGCLSQLHSGLFLYQGLLQALEGISPELGPTLDTLQLDVADFATTIWQQMEELGMAPALQPTQGAMPAFASAFQRRAGGVLVASHLQSFLEVSYRVLRHLAQP
notes: protein produced from the gene encoding colony-stimulating factor 3; known by trade names neupogen, neulasta, filgrastim
- time at which spermatogenesis recovered after busulfan treatment ([4]; 8-11 mg/kg busulfan plus G-CSF mobilization and PBSC transplants, three animals, endogenous spermatogenesis): ≥ 20 weeks
- empty seminiferous tubules, G-CSF + busulfan compared with busulfan alone [1, 6]: significantly fewer; also recorded: significantly less
- seminiferous tubules containing complete spermatogenesis, G-CSF + busulfan compared with busulfan alone [1, 6]: significantly more
- tubules with any degree of spermatogenesis, G-CSF + busulfan compared with busulfan alone [1, 6]: significantly more
- testis weights, busulfan + G-CSF compared with busulfan alone ([1]; G-CSF 50 μg/kg/day for seven days, busulfan 44 mg/kg, two months after treatment): not different; also recorded: did not differ significantly
- recovery of spermatogenesis after busulfan treatment, G-CSF compared with controls ([1]; histological analysis, G-CSF 50 μg/kg/day, busulfan 44 mg/kg, two months): significantly better recovery of spermatogenesis
- proportion of PLZF+ spermatogonia positive for activated Caspase 3, G-CSF compared to busulfan alone ([2]; early apoptosis, p=0.38): not different
- number of PLZF+ spermatogonia per tubule cross-section, G-CSF + busulfan compared with busulfan alone ([2]; p=0.035, student's T-test): significantly higher
- proportion of PLZF+ spermatogonia positive for TUNEL, G-CSF compared to busulfan alone ([2]; late apoptosis, p=0.28): not different
- numbers of surviving differentiated spermatogonia following sub-sterilizing irradiation [5]: modest improvement
